The subject of this series is K4 kissing-loop RNA reporter. Nature of the series: apparent KD of K4 kissing-loop reporter; higher = weaker reporter binding. The note with it: Eterna round: R107. The protocol: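 RNA-MaP round R107: designed RNA switches with theophylline, tryptophan, arginine or FMN aptamers are transcribed on-chip within common flanks. They are titrated with a labelled K4 kissing-loop RNA reporter in RNA-MaP buffer (100 mM Tris pH 7.5, 80 mM KCl, 4 mM MgCl2), without ligand or with the indicated ligand. Median apparent KD per design.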

Setting [1] is: input ligand: theophylline 20 uM.
Setting [2] is: input ligand: tryptophan 2.4 mM.
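Further: bound reporter read as fluorescence of individual clusters on recovered sequencing chips by microscopy, with normalized cluster intensities fitted with a binding model.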

In the case of “AGACUUCACCGAAGGAGCGACGUAGCCUAGUGAUGUUAGGCAAGAGAGAAAUCUCUUAAACGUCAGGUAGGUCGCGGUGAAGUCA [Omei KL Arginine B SS C v3]”, the “apparent KD of K4 kissing-loop reporter” value amounted to 0.262 µM (input ligand: FMN 200 uM); 0.163 µM (input ligand: arginine 13.2 mM); 0.202 µM (input ligand: none); 0.227 µM under setting [1]; 0.19 µM under setting [2].

As for “AGAGUCGGCUGUGAUACCAGUCGUAUAACAACAUGUCGCAGUGAUGUUGCGAGAUAGGAUGACCCUUGGCAGCACUCAGUACGAU [Same State Theophylline B GF 7]”, the “apparent KD of K4 kissing-loop reporter” value (input ligand: FMN 200 uM) stood at 0.425 µM; the “apparent KD of K4 kissing-loop reporter” value (input ligand: arginine 13.2 mM) amounted to 0.372 µM; the “apparent KD of K4 kissing-loop reporter” value (input ligand: none) was 0.347 µM; the “apparent KD of K4 kissing-loop reporter” value under setting [1] came out at 0.404 µM; the “apparent KD of K4 kissing-loop reporter” value under setting [2] is 0.426 µM.

In the case of “AGAGUUAUAUGAGGAUAUGAGAUAGUUAAUGAGUGAGUUAUAGUGUAGUUUGUUUAGUGAUGUUAUUUAGAAGGCGUGAGUGAUG [ljjlumullin]”, the “apparent KD of K4 kissing-loop reporter” value reads like this: (input ligand: FMN 200 uM) 0.14 µM; (input ligand: arginine 13.2 mM) 0.0894 µM; (input ligand: none) 0.122 µM; under setting [1], 0.133 µM; under setting [2], 0.0888 µM.

For the sequence “AGAUAGGGCUGAAGGAGCGUCGGAGAAGAAAAGAAGAAAUCCAGUGAUGUUGGAUAAAUCCGACAGGUAGGUCGCAGUUUUAUGA [hbob_SS_Arginine_B_2t136]”, the “apparent KD of K4 kissing-loop reporter” value came out at 0.109 µM (input ligand: FMN 200 uM); 0.116 µM (input ligand: arginine 13.2 mM); 0.127 µM (input ligand: none); 0.14 µM under setting [1]; 0.119 µM under setting [2].

As to “AGAUGUCCCUGGGAUACCAGUCGGAGUCUCAGGGCUCGGAGUGAUGUUCUGGGAUGUUUCGGCCCUUGGCAGCCCUGGGACUCCC [#2 Exclusion - Theophylline B Attempt #26 (HarryS)]”, the “apparent KD of K4 kissing-loop reporter” value (input ligand: FMN 200 uM) came to 0.573 µM; the “apparent KD of K4 kissing-loop reporter” value (input ligand: arginine 13.2 mM) worked out at 0.266 µM; the “apparent KD of K4 kissing-loop reporter” value (input ligand: none) amounted to 0.908 µM; the “apparent KD of K4 kissing-loop reporter” value under setting [1] is 0.671 µM; the “apparent KD of K4 kissing-loop reporter” value under setting [2] stood at 0.398 µM.

With “AGAUGUUCCUGGGAUACCAGUCGGAGUCUCAGAGCUCGGAGUGAUGUUCUGGGAUGUUUCGGCCCUUGGCAGCUCUGGGACUCCC [#2 Exclusion - Theophylline B Attempt #24 (HarryS)]”, the “apparent KD of K4 kissing-loop reporter” value (input ligand: FMN 200 uM) was 1.12 µM; the “apparent KD of K4 kissing-loop reporter” value (input ligand: arginine 13.2 mM) is 0.624 µM; the “apparent KD of K4 kissing-loop reporter” value (input ligand: none) was 0.642 µM; the “apparent KD of K4 kissing-loop reporter” value under setting [1] stood at 0.735 µM; the “apparent KD of K4 kissing-loop reporter” value under setting [2] stood at 0.726 µM.

As to “AGAUUCGGCACGGCCGCCACUUCCGGUGGCUGGUGUCAUGGUGCGCGUGAGUGAUGUUUAUGUGGGAGGACCGGGUGUUGAGUCU [whbob_Ex_Tryp_B_w43]”, the “apparent KD of K4 kissing-loop reporter” value (input ligand: FMN 200 uM) amounted to 0.974 µM; the “apparent KD of K4 kissing-loop reporter” value (input ligand: arginine 13.2 mM) was found to be 0.411 µM; the “apparent KD of K4 kissing-loop reporter” value (input ligand: none) worked out at 0.898 µM; the “apparent KD of K4 kissing-loop reporter” value under setting [1] came out at 0.592 µM; the “apparent KD of K4 kissing-loop reporter” value under setting [2] amounted to 0.603 µM.

For “AGCAGCAAAUCCUAGUGAUGUUAGGAUAUGUAGGAUAUCGGGAUACCGAGAAGGACAGAAGGAGGAGUGAUGUUCCUCAGCUGCA [FmnAX 23 #DoubleAptamer #DoubleK4 #SwitchBubble]”, the “apparent KD of K4 kissing-loop reporter” value is, setting by setting: (input ligand: FMN 200 uM) 0.116 µM; (input ligand: arginine 13.2 mM) 0.106 µM; (input ligand: none) 0.104 µM; under setting [1], 0.102 µM; under setting [2], 0.0949 µM.

As for “AGCCAGGAACUUGCAACCUGGCUGCUGGAUACCAGCUCGGAAACGAGCCCUUGGCAGCCAGUACUUGCAGUGAUGUUGCAAGUUC [Design13]”, the “apparent KD of K4 kissing-loop reporter” value is, setting by setting: (input ligand: FMN 200 uM) 0.0722 µM; (input ligand: arginine 13.2 mM) 0.0373 µM; (input ligand: none) 0.153 µM; under setting [1], 0.0259 µM; under setting [2], 0.29 µM.

With “AGCCUAGGAGUCAUUUCCUGCCCGUACGAUACCAGCAUUACCAGUUGCCCUUGGCAGCGUUAUAAGGCCAGUGAUGUUGGCCACU [theeternabot_sameState_KL_Theo_A_22]”, the “apparent KD of K4 kissing-loop reporter” value runs as follows: (input ligand: FMN 200 uM) 0.168 µM; (input ligand: arginine 13.2 mM) 0.175 µM; (input ligand: none) 0.185 µM; under setting [1], 0.197 µM; under setting [2], 0.167 µM.

With “AGCCUGAUAUAAGGAUAUCCGGACCGAGUAACUGAGUGAUGUUCAGGUGAAUAAUGUCUCACAUUGGGAGAAGGUAUUUCAGCGA [theeternabot_sameState_KL_FMN_B_21]”, the “apparent KD of K4 kissing-loop reporter” value is, setting by setting: (input ligand: FMN 200 uM) 0.232 µM; (input ligand: arginine 13.2 mM) 0.182 µM; (input ligand: none) 0.251 µM; under setting [1], 0.276 µM; under setting [2], 0.225 µM.

With “AGCUCAGAGUGACUUGAUAAGAGUCACAAACGAGGACCGGUACGGCCGCCACUCGAAAUAACGAGAGUGAUGUUCUCGCUGAGCA [FiskerMod 5 - Jieux - Same State Tryptophan A]”, the “apparent KD of K4 kissing-loop reporter” value (input ligand: FMN 200 uM) came out at 0.696 µM; the “apparent KD of K4 kissing-loop reporter” value (input ligand: arginine 13.2 mM) was determined as 0.564 µM; the “apparent KD of K4 kissing-loop reporter” value (input ligand: none) turned out to be 0.98 µM; the “apparent KD of K4 kissing-loop reporter” value under setting [1] turned out to be 0.843 µM; the “apparent KD of K4 kissing-loop reporter” value under setting [2] came out at 0.328 µM.

On to “AGGAGCGUGGGAUGCAAAUCGCACGCUCCUCGAGGACCGGUACGGCCGCCACUCGCUCGCGCCGAGUGAUGUUCGGCCGGCGAAC [#2 Same State - Tryptophan A Attempt #14 (HarryS)]”, for which the “apparent KD of K4 kissing-loop reporter” value reads like this: (input ligand: FMN 200 uM) 0.221 µM; (input ligand: arginine 13.2 mM) 0.232 µM; (input ligand: none) 0.247 µM; under setting [1], 0.266 µM; under setting [2], 0.407 µM.

“AGGAUCCGUCGACAAAAGUCGACAUAAUCCAAGGAUAUGACGAAAGUCAGAAGGUGGGCAUAAGUCCAGUGAUGUUGGAGGAUCC [FmnA 18 #SwitchBubble #K4Late]”: the “apparent KD of K4 kissing-loop reporter” value stood at 0.575 µM (input ligand: FMN 200 uM); 0.36 µM (input ligand: arginine 13.2 mM); 0.587 µM (input ligand: none); 0.523 µM under setting [1]; 0.445 µM under setting [2].

With “AGGGUAAGGCGUUAACAUGACACCUGGGAAGGAGCGCAGUACACUGCAGGUAGGUCGCCCAGUGAUGUUGGGCGUAUGUAUUAGU [Legexeso]”, the “apparent KD of K4 kissing-loop reporter” value is, setting by setting: (input ligand: FMN 200 uM) 0.14 µM; (input ligand: arginine 13.2 mM) 0.143 µM; (input ligand: none) 0.153 µM; under setting [1], 0.2 µM; under setting [2], 0.119 µM.

For the sequence “AGGGUAAGGCGUUAACAUGACACCUGGGAAGGAGCGCGGUACACCGCAGGUAGGUCGCCCAGUGAUGUUGGGUGAUUGUAUGAGU [KL-XArg-A24]”, the “apparent KD of K4 kissing-loop reporter” value (input ligand: FMN 200 uM) is 0.149 µM; the “apparent KD of K4 kissing-loop reporter” value (input ligand: arginine 13.2 mM) is 0.123 µM; the “apparent KD of K4 kissing-loop reporter” value (input ligand: none) was 0.136 µM; the “apparent KD of K4 kissing-loop reporter” value under setting [1] was 0.15 µM; the “apparent KD of K4 kissing-loop reporter” value under setting [2] is 0.131 µM.

The values above are taken from the supplement of paper PMC9170038.
